Test [1] addresses T1, B7.1/Ig fusion protein (human, UniProt P33681 35-242, 125I radiolabel where used as tracer).
T1 construct: Secreted from CHO cells; also called B7-Ig; not shown: human immunoglobulin CH2 and CH3 domains of the NEOSPLA cassette vector; isotype
T1 sequence (looked up): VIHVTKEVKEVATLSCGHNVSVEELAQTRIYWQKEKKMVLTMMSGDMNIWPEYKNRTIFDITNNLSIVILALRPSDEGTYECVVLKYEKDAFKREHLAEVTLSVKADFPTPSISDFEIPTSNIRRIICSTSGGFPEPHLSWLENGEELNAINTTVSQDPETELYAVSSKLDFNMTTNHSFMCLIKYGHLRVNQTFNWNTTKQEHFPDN
Kind of test: Scatchard analysis, binding to B7-Ig coated plates.

In test [2] the target is T1, B7.1/Ig fusion protein. The test can be described thus: Scatchard analysis, binding to B7-Ig coated plates. This is another data set of the same source.
In test [3] the target is T2, membrane associated human B7.1 on cells (human, UniProt P33681 35-288).
T2 sequence (looked up): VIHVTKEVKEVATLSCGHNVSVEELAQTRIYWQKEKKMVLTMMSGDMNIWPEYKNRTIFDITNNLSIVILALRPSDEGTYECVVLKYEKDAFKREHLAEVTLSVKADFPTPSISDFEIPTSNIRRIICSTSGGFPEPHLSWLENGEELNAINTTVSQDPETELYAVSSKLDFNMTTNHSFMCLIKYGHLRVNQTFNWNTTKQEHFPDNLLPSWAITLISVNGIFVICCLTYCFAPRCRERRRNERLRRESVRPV
Kind of test: cell-based or functional assay.

Where two headings read alike, the source gives them in different places.

From US6893638 come the findings set out here.

The term Kd denotes the equilibrium constant for the complex coming apart. Read a low Kd as higher affinity.

B1: monkey monoclonal anti-B7.1 antibody 16C10 (antibody, V domains shown)
VH: QVQLQESGPGLVKPSETLSLTCAVSGGSISGGYGWGWIRQPPGKGLEWIGSFYSSSGNTYYNPSLKSQVTISTDTSKNQFSLKLNSMTAADTAVYYCVRDRLFSVVGMVYNNWFDVWGPGVLVTVSS
VL: ESVLTQPPSVSGAPGQKVTISCTGSTSNIGGYDLHWYQQLPGTAPKLLIYDINKRPSGISDRFSGSKSGTAASLAITGLQTEDEADYYCQSYDSSLNAQVFGGGTRLTVL
notes: Tested as the original cynomolgus monkey Ig from a heterohybridoma
With B1, the dissociation constant Kd with B7.1/Ig fusion protein [1] and with B7.1/Ig fusion protein [2] was approximately 8.1 nM each time. In test [3], the “inhibit IL-2 production in mixed lymphocyte reaction” value (shortened to “inhibit IL-2 production”) stood at 0.1 µg/mL.

B2: monkey monoclonal anti-B7.1 antibody 7C10 (antibody, V domains shown)
VH: QVKLQQWGEGLLQPSETLSRTCVVSGGSISGYYYWTWIRQTPGRGLEWIGHIYGNGATTNYNPSLKSRVTISKDTSKNQFFLNLNSVTDADTAVYYCARGPRPDCTTICYGGWVDVWGPGDLVTVSS
VL: AYELTQPPSVSVSPGQTARITCGGDNSRNEYVHWYQQKPARAPILVIYDDSDRPSGIPERFSGSKSGNTATLTINGVEAGDEADYYCQVWDRASDHPVFGGGTRVTVL
notes: Tested as the original cynomolgus monkey Ig from a heterohybridoma; A leader may be included in the entries; also called 7C10 monkey Ig
B2: the Kd with B7.1/Ig fusion protein [1] and with B7.1/Ig fusion protein [2] was approximately 6.2 nM in each case. The “inhibit IL-2 production” value in test [3] is 5 µg/mL.

B3: monkey monoclonal anti-B7.1 antibody 7B6 (antibody, V domains shown)
VH: EVQLVESGGGLVQPGGSLRVSCAVSGFTFSDHYMYWFRQAPGKGPEWVGFIRNKPNGGTTEYAASVKDRFTISRDDSKSIAYLQMSSLKIEDTAVYYCTTSYISHCRGGVCYGGYFEFWGQGALVTVSS
VL: EVVMTQSPLSLPITPGEPASISCRSSQSLKHSNGDTFLSWYQQKPGQPPRLLIYKVSNRDSGVPDRFSGSGAGTDFTLKISAVEAEDVGVYFCGQGTRTPPTFGGGTKVEIK
notes: as for B1
As for B3, the Kd with B7.1/Ig fusion protein [1] and with B7.1/Ig fusion protein [2] was approximately 10.7 nM throughout. For the same molecule, the “inhibit IL-2 production” value in test [3] turned out to be 5 µg/mL.
